This is an account of results in patent publication US20260125472A1 (HEFEI TG IMMUNOPHARMA, published 2026).

Usually Kd stands for a measure of binding affinity in units of concentration. For orientation: koff means the rate constant with which the complex falls apart. What is called kon is the rate constant with which the complex forms. One may read the EC50 (read off the curve) as the concentration at which the effect is half-maximal.

In test [1] the target is T1, CD3E&D protein (UniProt P04234 22-105).
T1 construct: Purchased from Acro; also called CD3 E&D antigens; CD3E&D antigen protein
T1 sequence (chain, as listed by the source limits assumed, chain 1 of 2): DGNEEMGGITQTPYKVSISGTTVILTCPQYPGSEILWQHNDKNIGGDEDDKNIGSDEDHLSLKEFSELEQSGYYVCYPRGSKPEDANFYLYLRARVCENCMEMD
T1 sequence (P04234 22-105 limits assumed, chain 2 of 2): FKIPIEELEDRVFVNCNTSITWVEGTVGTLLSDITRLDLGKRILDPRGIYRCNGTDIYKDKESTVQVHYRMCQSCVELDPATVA
Description: SPR (Biacore 8K), antibody on CM5 chip, CD3 E&D antigen as analyte. Further details: Fold change: reference not given here. The protocol: In a Biacore 8K (Cytiva) system, the antibody was diluted to 10 μg/mL in HBS-EP running buffer and coupled to a CM5 chip (Cytiva) at a flow rate of 10 μL/min.
Background: Surface plasmon resonance follows binding to a sensor surface in real time, without labels.

Test [2] has as its target T2, Trop2 protein (UniProt P09758 27-274).
T2 construct: Bought recombinant protein; also called Trop2-Biotin protein (biotin-labelled, bridging ELISA)
T2 sequence (looked up): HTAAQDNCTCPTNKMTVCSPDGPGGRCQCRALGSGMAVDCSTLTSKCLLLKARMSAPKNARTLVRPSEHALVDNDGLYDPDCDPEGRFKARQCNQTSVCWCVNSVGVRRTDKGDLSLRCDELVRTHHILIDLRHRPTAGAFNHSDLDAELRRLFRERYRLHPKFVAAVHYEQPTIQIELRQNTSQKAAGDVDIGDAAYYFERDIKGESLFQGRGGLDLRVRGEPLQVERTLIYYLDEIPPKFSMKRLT
Description: ELISA, coated Trop2 protein, OD450. The text has this:
In this example, the binding properties of the CD3×Trop2 and CD3×PDL1 bispecific antibody (the production method and the amino acid sequences of the heavy and light chains were shown in Example 1) were detected by using ELISA. The CD3E&D, Trop2, or PDL1 protein was coated onto 96-well plates by inventors, and the strength of the signal after the addition of the antibody was used to determine the binding properties of the antibody and the corresponding protein.
(2) Trop2 protein (purchased from Acro) was diluted to 2 μg/ml with PBS buffer, added to a 96-well plate at a volume of 100 μL/well, and placed at 4° C. overnight. The PBS buffer in the 96-well plate was aspirated, and the plate was washed 6 times with PBST (pH 7.2 PBS containing 0.1% Tween 20) buffer. Then, 200 μL/well PBS/10% BSA was added and incubated at 37° C. for 2 h for blocking. The blocking solution was removed, and the plate was washed six times with PBST. Then, the to-be-tested bispecific antibodies, Cross3×Trop2, Cross303×Trop2, Cross307×Trop2, Cross308×Trop2, Cross309×Trop2, Cross310×Trop2, Cross311×Trop2, Cross312×Trop2, Cross313×Trop2, Cross314×Trop2, Cross316×Trop2, Cross317×Trop2, Cross318×Trop2, Cross323×Trop2, Cross325×Trop2, Cross326×Trop2, and control IgG1LALA (purchased from Bio-Tech), serially diluted with PBST/0.05% BSA, were added at 100 μL/well and incubated at 37° C. for 1 h. The reaction system was removed, and the plate was washed 6 times with PBST. Then, HRP (horseradish peroxidase)-labeled anti-human secondary antibody (Fab specific) (purchased from Sigma) diluted with PBST/0.05% BSA at 100 μL/well. After the plate was washed six times with PBST, TMB (tetramethylbenzidine) was added at 80 μL/well, and incubated at room temperature for 3 min. 4 M sulfuric acid was added at 80 μL/well to terminate the reaction. The absorbance was read at 450 nm using a microplate reader.
On the technique in general: ELISA stands for enzyme-linked immunosorbent assay.

Test [3] addresses T3, Trop2 on A-375-Trop2 melanoma cells (UniProt P09758 27-323, limits assumed).
T3 construct: whole, on cells
T3 sequence (looked up): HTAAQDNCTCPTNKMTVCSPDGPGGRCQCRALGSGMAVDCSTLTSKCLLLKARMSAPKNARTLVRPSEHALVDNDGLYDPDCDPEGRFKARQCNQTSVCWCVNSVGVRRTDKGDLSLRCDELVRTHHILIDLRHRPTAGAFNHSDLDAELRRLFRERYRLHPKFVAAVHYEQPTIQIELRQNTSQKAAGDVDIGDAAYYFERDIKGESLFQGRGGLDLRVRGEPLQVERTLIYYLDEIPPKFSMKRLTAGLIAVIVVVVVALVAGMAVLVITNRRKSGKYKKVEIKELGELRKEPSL
Description: flow cytometry, A-375-Trop2 cells, MFI [panel B]. How it is done: (2) The tumor cells were diluted to 2×10⁶/ml with PBS and added to a 1.5 ml EP tube at a volume of 100 μl/tube, and goat serum was added thereto at 10 μl/tube. The cells were blocked at 4° C. for 30 min. The serially diluted bispecific antibodies, Cross3×Trop2, Cross303×Trop2, Cross307×Trop2, Cross308×Trop2, Cross309×Trop2, Cross310×Trop2, Cross311×Trop2, Cross312×Trop2, Cross313×Trop2, Cross314×Trop2, Cross316×Trop2, Cross317×Trop2, Cross318×Trop2, Cross323×Trop2, Cross325×Trop2, Cross326×Trop2, and Cross3×PDL1, Cross303×PDL1, Cross307×PDL1, Cross308×PDL1, Cross309×PDL1, Cross310×PDL1, Cross311×PDL1, Cross312×PDL1, Cross313×PDL1, Cross314×PDL1, Cross316×PDL1, Cross317×PDL1, Cross318×PDL1, Cross323×PDL1, Cross325×PDL1, Cross326×PDL1, and control hIgG1LALA (purchased from Bio-Tech) were added and incubated at 4° C. for 30 min. 1 ml of PBS was added to the EP tube, followed by centrifugation at 3500 rpm for 5 min at 4° C. The supernatant was discarded, and the cells were washed again with PBS. After centrifugation, the supernatant was completely discarded, and the cells were resuspended with PBS at 100 μl/tube. Alexa-647-labeled goat anti-human IgG secondary antibody (purchased from Jackson lab) was added at 1 μl/tube and incubated at 4° C. in the dark for 30 min. The cells were washed twice with PBS, and the supernatant was completely discarded after centrifugation. The cells were resuspended with PBS at 200 μl/tube and assay was performed using the flow cytometry.
(In general: Flow cytometry measures light scatter and fluorescence of single cells or particles in a stream.)

B1: Cross3ZH07 (antibody, human IgG1, kappa, V domains shown)
VH: EVQLLESGGGLVQPGGSLKLSCAASGFTFNTYAMNWVRQAPGKGLEWVARIRSKYNNYATYYADSVKDRFTISRDDSKNTAYLQMNNLKTEDTAVYYCVRHGMFGNSYVSWFAYWGQGTLVTVSS
VL: ELVVTQEPSLTVSPGGTVTLTCRSSTGAVTTSNYANWVQQKPGQAPRGLIGGTNKRAPGTPARFSGSLLGGKAALTLSGVQPEDEAEYYCALWYPNPWVFGGGTKLTVLR
In test [1], B1 yielded a Fold change of 69.1, a dissociation constant Kd of 11.4 nM, a dissociation rate constant (koff) of 0.00138 s⁻¹ and an on-rate (kon) of 121000 M⁻¹ s⁻¹.

B2: Cross3ZH23 (antibody, human IgG1, kappa, V domains shown)
VH: EVQLLESGGGLVQPGGSLKLSCAASGFTFNTYAMNWVRQAPGKGLEWVARIRSKYNNYATYYADSVKDRFTISRDDSKNTAYLQMNNLKTEDTAVYYCVRHGNFGNDYVSWFAYWGQGTLVTVSS
VL: ELVVTQEPSLTVSPGGTVTLTCRSSTGAVTTSNYANWVQQKPGQAPRGLIGGTNKRAPGTPARFSGSLLGGKAALTLSGVQPEDEAEYYCALWYSNPWVFGGGTKLTVLR
In test [1], B2 returned a Fold change of 4090, an equilibrium dissociation constant (Kd) of 675 nM, a dissociation rate constant (koff) of 0.055 s⁻¹ and a kon of 81500 M⁻¹ s⁻¹.

B3: Cross3ZH09 (antibody, human IgG1, kappa, V domains shown)
VH: EVQLLESGGGLVQPGGSLKLSCAASGFTFNTYAMNWVRQAPGKGLEWVARIRSKYNNYATYYADSVKDRFTISRDDSKNTAYLQMNNLKTEDTAVYYCVRHGNFGNSYVSWFLYWGQGTLVTVSS
VL: ELVVTQEPSLTVSPGGTVTLTCRSSTGAVTTSNYANWVQQKPGQAPRGLIGGTNKRAPGTPARFSGSLLGGKAALTLSGVQPEDEAEYYCALWYPNPWVFGGGTKLTVLR
As to B3, in test [1], the Fold change amounted to 636; the affinity, expressed as Kd, was 105 nM; the koff came to 0.00296 s⁻¹; the association rate constant (kon) stood at 28100 M⁻¹ s⁻¹.

B4: Cross3ZH16 (antibody, human IgG1, kappa, V domains shown)
VH: EVQLLESGGGLVQPGGSLKLSCAASGFTFNTYAMNWVRQAPGKGLEWVARIRSKYNNYATYYADSVKDRFTISRDDSKNTAYLQMNNLKTEDTAVYYCVRHGNFGNSYVSWFAYWGQGTLVTVSS
VL: ELVVTQEPSLTVSPGGTVTLTCRSSTGAVTTSNYANWVQQKPGQAPRGLIGGTNKRAPGTPARFSGSLLGGKAALTLSGVQPEDEAEYYCALWYPNDWVFGGGTKLTVLR
In test [1], B4 registered a Fold change of 105, a dissociation constant (Kd) of 17.3 nM, a koff of 0.0243 s⁻¹ and an association rate constant (kon) of 1.41e+06 M⁻¹ s⁻¹.

B5: Cross3×Trop2 (bispecific antibody)
scFv: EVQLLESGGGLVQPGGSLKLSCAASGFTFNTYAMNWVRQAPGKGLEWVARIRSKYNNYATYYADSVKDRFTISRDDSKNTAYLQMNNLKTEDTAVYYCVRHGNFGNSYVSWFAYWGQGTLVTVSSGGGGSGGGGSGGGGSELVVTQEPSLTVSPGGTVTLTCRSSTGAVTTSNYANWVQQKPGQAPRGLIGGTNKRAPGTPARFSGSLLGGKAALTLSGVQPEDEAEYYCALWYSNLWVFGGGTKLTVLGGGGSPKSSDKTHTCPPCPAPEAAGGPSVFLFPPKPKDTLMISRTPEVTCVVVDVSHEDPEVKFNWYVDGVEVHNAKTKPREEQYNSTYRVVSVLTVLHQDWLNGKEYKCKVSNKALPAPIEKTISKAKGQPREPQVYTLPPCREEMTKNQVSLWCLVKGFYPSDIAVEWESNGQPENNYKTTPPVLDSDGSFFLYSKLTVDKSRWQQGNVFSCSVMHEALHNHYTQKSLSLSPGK
heavy: QVQLQQSGSELKKPGASVKVSCKASGYTFTNYGMNWVKQAPGQGLKWMGWINTYTGEPTYTDDFKGRFAFSLDTSVSTAYLQISSLKADDTAVYFCARGGFGSSYWYFDVWGQGSLVTVSSASTKGPSVFPLAPSSKSTSGGTAALGCLVKDYFPEPVTVSWNSGALTSGVHTFPAVLQSSGLYSLSSVVTVPSSSLGTQTYICNVNHKPSNTKVDKKVEPKSSDKTHTCPPCPAPEAAGGPSVFLFPPKPKDTLMISRTPEVTCVVVDVSHEDPEVKFNWYVDGVEVHNAKTKPREEQYNSTYRVVSVLTVLHQDWLNGKEYKCKVSNKALPAPIEKTISKAKGQPREPQVCTLPPSREEMTKNQVSLSCAVKGFYPSDIAVEWESNGQPENNYKTTPPVLDSDGSFFLVSKLTVDKSRWQQGNVFSCSVMHEALHNHYTQKSLSLSPGK
light: DIQLTQSPSSLSASVGDRVSITCKASQDVSIAVAWYQQKPGKAPKLLIYSASYRYTGVPDRFSGSGSGTDFTLTISSLQPEDFAVYYCQQHYITPLTFGAGTKVEIKRTVAAPSVFIFPPSDEQLKSGTASVVCLLNNFYPREAKVQWKVDNALQSGNSQESVTEQDSKDSTYSLSSTLTLSKADYEKHKVYACEVTHQGLSSPVTKSFNRGEC
notes: also called parental Cross3×Trop2 bispecific antibody
Turning to B5, the results for the “EC50 (read off the curve)” value in test [2] and in test [3] were around 0.008 µg/mL and around 1 µg/mL, respectively.

B6: Cross303×Trop2 (bispecific antibody)
scFv: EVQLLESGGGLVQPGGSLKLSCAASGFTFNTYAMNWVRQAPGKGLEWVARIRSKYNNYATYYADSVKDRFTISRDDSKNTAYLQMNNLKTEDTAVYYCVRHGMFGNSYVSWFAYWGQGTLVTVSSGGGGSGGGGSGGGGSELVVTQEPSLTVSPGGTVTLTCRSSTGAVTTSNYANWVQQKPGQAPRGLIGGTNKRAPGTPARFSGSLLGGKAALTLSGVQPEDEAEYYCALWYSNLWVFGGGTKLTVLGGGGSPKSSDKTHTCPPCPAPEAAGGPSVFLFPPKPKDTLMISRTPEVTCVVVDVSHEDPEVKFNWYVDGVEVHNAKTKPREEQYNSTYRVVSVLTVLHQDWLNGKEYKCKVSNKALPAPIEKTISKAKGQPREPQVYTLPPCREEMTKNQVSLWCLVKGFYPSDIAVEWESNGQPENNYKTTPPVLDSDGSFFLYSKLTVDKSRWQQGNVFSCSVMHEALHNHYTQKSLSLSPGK
heavy: QVQLQQSGSELKKPGASVKVSCKASGYTFTNYGMNWVKQAPGQGLKWMGWINTYTGEPTYTDDFKGRFAFSLDTSVSTAYLQISSLKADDTAVYFCARGGFGSSYWYFDVWGQGSLVTVSSASTKGPSVFPLAPSSKSTSGGTAALGCLVKDYFPEPVTVSWNSGALTSGVHTFPAVLQSSGLYSLSSVVTVPSSSLGTQTYICNVNHKPSNTKVDKKVEPKSSDKTHTCPPCPAPEAAGGPSVFLFPPKPKDTLMISRTPEVTCVVVDVSHEDPEVKFNWYVDGVEVHNAKTKPREEQYNSTYRVVSVLTVLHQDWLNGKEYKCKVSNKALPAPIEKTISKAKGQPREPQVCTLPPSREEMTKNQVSLSCAVKGFYPSDIAVEWESNGQPENNYKTTPPVLDSDGSFFLVSKLTVDKSRWQQGNVFSCSVMHEALHNHYTQKSLSLSPGK
light: DIQLTQSPSSLSASVGDRVSITCKASQDVSIAVAWYQQKPGKAPKLLIYSASYRYTGVPDRFSGSGSGTDFTLTISSLQPEDFAVYYCQQHYITPLTFGAGTKVEIKRTVAAPSVFIFPPSDEQLKSGTASVVCLLNNFYPREAKVQWKVDNALQSGNSQESVTEQDSKDSTYSLSSTLTLSKADYEKHKVYACEVTHQGLSSPVTKSFNRGEC
As for B6, the entries for the “EC50 (read off the curve)” value in test [2] and in test [3] were around 0.008 µg/mL and around 1 µg/mL, respectively.

B7: Cross307×Trop2 (bispecific antibody)
scFv: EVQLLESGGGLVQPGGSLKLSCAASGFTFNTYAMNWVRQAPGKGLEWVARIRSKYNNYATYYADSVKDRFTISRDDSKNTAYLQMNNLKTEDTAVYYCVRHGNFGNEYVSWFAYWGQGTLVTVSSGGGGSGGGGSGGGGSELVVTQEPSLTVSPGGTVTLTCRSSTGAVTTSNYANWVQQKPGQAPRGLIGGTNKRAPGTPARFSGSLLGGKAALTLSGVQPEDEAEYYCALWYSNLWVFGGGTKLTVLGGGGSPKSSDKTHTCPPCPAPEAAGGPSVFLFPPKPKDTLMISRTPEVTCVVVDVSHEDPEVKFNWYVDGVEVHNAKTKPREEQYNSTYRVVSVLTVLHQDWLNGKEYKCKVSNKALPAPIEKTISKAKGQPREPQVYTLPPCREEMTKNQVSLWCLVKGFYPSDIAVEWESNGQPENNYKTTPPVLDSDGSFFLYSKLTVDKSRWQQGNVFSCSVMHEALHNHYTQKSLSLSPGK
heavy: QVQLQQSGSELKKPGASVKVSCKASGYTFTNYGMNWVKQAPGQGLKWMGWINTYTGEPTYTDDFKGRFAFSLDTSVSTAYLQISSLKADDTAVYFCARGGFGSSYWYFDVWGQGSLVTVSSASTKGPSVFPLAPSSKSTSGGTAALGCLVKDYFPEPVTVSWNSGALTSGVHTFPAVLQSSGLYSLSSVVTVPSSSLGTQTYICNVNHKPSNTKVDKKVEPKSSDKTHTCPPCPAPEAAGGPSVFLFPPKPKDTLMISRTPEVTCVVVDVSHEDPEVKFNWYVDGVEVHNAKTKPREEQYNSTYRVVSVLTVLHQDWLNGKEYKCKVSNKALPAPIEKTISKAKGQPREPQVCTLPPSREEMTKNQVSLSCAVKGFYPSDIAVEWESNGQPENNYKTTPPVLDSDGSFFLVSKLTVDKSRWQQGNVFSCSVMHEALHNHYTQKSLSLSPGK
light: DIQLTQSPSSLSASVGDRVSITCKASQDVSIAVAWYQQKPGKAPKLLIYSASYRYTGVPDRFSGSGSGTDFTLTISSLQPEDFAVYYCQQHYITPLTFGAGTKVEIKRTVAAPSVFIFPPSDEQLKSGTASVVCLLNNFYPREAKVQWKVDNALQSGNSQESVTEQDSKDSTYSLSSTLTLSKADYEKHKVYACEVTHQGLSSPVTKSFNRGEC
Turning to B7, the concentration giving a half-maximal response (EC50 (read off the curve)) is around 0.008 µg/mL in test [2] and around 1 µg/mL in test [3].
